According to patent publication US20250042994A1 (HAINAN SIMCERE ZAIMING PHARMACEUTICAL, published 2025):

T1: human CD19 on Raji cells (human, UniProt P15391 20-556)
T1 construct: whole, on cells
T1 sequence (looked up): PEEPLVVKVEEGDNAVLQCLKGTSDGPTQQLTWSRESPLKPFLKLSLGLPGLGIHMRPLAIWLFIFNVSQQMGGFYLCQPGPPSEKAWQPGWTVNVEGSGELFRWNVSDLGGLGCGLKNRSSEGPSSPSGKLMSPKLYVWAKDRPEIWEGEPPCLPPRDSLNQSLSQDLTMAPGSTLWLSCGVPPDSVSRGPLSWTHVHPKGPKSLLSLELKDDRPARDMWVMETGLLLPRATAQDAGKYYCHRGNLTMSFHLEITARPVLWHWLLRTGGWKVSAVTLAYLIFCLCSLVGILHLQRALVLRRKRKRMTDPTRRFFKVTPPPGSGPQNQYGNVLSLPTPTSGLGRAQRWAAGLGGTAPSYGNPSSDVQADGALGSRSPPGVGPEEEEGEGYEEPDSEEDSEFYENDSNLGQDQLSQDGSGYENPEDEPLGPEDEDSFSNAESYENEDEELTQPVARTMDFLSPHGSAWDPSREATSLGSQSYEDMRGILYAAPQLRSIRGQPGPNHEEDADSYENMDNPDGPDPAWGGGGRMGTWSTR

T2: cynomolgus monkey CD19 on peripheral blood B cells (cynomolgus monkey (Macaca fascicularis), UniProt A0A2K5W8L9 20-557)
T2 construct: whole, on cells; also called cynomolgus monkey B cells
T2 sequence: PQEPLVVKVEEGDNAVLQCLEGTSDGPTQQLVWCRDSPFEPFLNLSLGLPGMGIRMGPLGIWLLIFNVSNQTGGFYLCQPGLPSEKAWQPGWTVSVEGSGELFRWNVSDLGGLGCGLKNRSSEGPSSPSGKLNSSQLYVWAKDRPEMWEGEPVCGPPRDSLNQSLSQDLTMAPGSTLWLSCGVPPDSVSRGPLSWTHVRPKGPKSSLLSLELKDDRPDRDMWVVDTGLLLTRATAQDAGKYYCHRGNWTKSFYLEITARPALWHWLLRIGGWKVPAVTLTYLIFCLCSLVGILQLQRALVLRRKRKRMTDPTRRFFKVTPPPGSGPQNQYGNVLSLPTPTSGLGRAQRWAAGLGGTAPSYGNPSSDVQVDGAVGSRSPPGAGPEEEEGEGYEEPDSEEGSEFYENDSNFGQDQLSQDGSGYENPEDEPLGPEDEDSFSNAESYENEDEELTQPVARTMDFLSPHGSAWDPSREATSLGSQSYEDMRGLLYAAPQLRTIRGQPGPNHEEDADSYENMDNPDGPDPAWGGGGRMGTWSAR

T3: human CD19 on CHO-K1-human CD19 cells (human, UniProt P15391 20-556)
T3 construct: whole, on cells; also called CHO-K1-human CD19-2C8
T3 sequence (looked up): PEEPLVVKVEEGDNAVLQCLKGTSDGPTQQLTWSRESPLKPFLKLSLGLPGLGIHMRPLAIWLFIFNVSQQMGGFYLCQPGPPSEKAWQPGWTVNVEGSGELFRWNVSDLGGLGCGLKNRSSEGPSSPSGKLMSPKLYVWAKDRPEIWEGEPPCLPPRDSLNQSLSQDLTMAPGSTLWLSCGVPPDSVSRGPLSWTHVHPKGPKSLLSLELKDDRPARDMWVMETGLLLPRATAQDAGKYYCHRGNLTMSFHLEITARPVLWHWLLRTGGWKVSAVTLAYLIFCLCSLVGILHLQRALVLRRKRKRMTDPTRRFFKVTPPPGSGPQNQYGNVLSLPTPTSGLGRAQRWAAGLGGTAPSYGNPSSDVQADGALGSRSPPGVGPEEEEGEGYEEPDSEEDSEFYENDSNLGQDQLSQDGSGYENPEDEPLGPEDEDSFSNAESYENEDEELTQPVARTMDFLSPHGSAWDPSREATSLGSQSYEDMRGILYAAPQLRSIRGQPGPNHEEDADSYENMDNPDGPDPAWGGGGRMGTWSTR


Assays:
human CD19 on Raji cells = molecular target: T1, human CD19 on Raji cells; assay: FACS on Raji cells
Source text: (§1) The desired cells were scale-up cultured in a T-75 cell culture flask to the logarithmic growth phase. For the adherent cell CHO-K1, the medium was aspirated, the cells were washed 2 times with a PBS buffer, and then digested with trypsin. After the digestion was terminated, the cells were washed 2 times with a PBS buffer; and for suspension cell Raji, the supernatant of the medium was discarded by directly centrifugation, and the cell pellet was washed 2 times with PBS. After counting the cells in the previous step, the cell pellet was resuspended with [PBS+2% (w/w) BSA] blocking solution to 2×10⁶ cells/ml, and added to a 96-well FACS reaction plate at 50 μl/well, and then the sample to be tested was added at 50 μl/well, and incubated on ice for 2 h. The obtained mixture was centrifuged and washed 3 times with a PBS buffer. […] The obtained mixture was centrifuged and washed 5 times with a PBS buffer, and FACS (FACS Canto™, purchased from BD Company) was used for detection and result analysis. Data analysis was performed by software (FlowJo) to obtain the mean fluorescence intensity (MFI) of the cells. And then software (GraphPad Prism8) was used for analysis, data fitting, and EC50 value calculation. […] The same method was used to detect the binding of the chimeric antibodies to endogenous CD19-negative cells, MoLT4 cells (purchased from ATCC, CRL-1582), and CHO-K1 cells.

[1] = molecular target: T2, cynomolgus monkey CD19 on peripheral …; assay: FACS, cynomolgus PBMC, CD20+ B cells
Experimental: The monkey peripheral blood mononuclear cells were extracted from fresh cynomolgus monkey peripheral blood (purchased from Shanghai Medicilon Inc.) according to the instructions of Ficoll-Paque Plus (purchased from GE Healthcae, catalog number: 171440-02). After the cell suspension was centrifuged, the cells were resuspended in PBS containing 1% BSA, and then the cells were counted. […] The mixture was incubated for 1 h at room temperature. After washing the cells three times, APC-labeled secondary antibody anti-human IgG Fc (catalog number: 409306, purchased from Biolegend) was added. After incubation at room temperature in the dark for 30 minutes, the cells were washed 5 times, gently resuspended with PBS containing 1% BSA, and detected and analyzed by FACS (FACS Canto™, purchased from BD Company), in which CD20 was used as a marker of B cells to gate the CD20-positive B cell population, the proportion of the chimeric antibody-labeled positive cells was analyzed, and the proportion of the chimeric antibody positive cell population to B cell population was calculated after treatments with the chimeric antibodies at the concentrations of 100 nM, 10 nM and 1 nM, respectively.

[2] = molecular target: T4, monkey CD19 on HEK293T-monkey CD19 cells (monkey); assay: FACS on HEK293T-monkey CD19 cells
T4 construct: whole, on cells
Experimental: as §1, with “After” for “The desired cells were scale-up cultured in a T-75 cell culture flask to the logarithmic growth phase. For the adherent cell CHO-K1, the medium was aspirated, the cells were washed 2 times with a PBS buffer, and then digested with trypsin. After”
HEK293T-monkey CD19 cells were subjected to FACS detection and data analysis according to the method in example 5.2. […] The same method was used to detect binding of the chimeric antibodies to HEK293T cells.

[3] = molecular target: T3, human CD19 on CHO-K1-human CD19 cells; assay: FACS on CHO-K1-human CD19 cells
Source text: as §1

Binder	EC50 (human CD19 on Raji cells) [nM]	Maximum mean fluorescence intensity (human CD19 on Raji cells)	Proportion of chimeric antibody positive cells to B cells (%) at 1 nM [1] [%]	Proportion of chimeric antibody positive cells to B cells (%) at 10 nM [1] [%]	Proportion of chimeric antibody positive cells to B cells (%) at 100 nM [1] [%]	EC50 [2] [nM]	Maximum mean fluorescence intensity [2]	EC50 [3] [nM]	Maximum mean fluorescence intensity [3]
F1-mab003 (antibody, human IgG1, V domains shown, human-murine chimeric antibody, human IgG1) VH: EVQLQQSGPELVKPGASVKMSCKASGYTFTDYVMHWVRQTPGQGLEWIGYFNPYNDGTNYNEKFKVKATLTSDKSSTTAYMELSSLTSEDSAVYYCARGVYYYGRDFDYWGQGTTLTVSS VL: DVVLTQTPLSLPVSLGDQASISCRSSQSLENSNGNSYLNWYLQKPGQSPQLLIYRVSNRFSGVLDRFSGSGSGTDFTLKISRVEAEDLGVYFCLQITHVPWTFGGGTKLEIK	0.57	33100	15	32	59	1.76	75000	0.69	66900
F3.3.10 (antibody, human IgG1, V domains shown, human-murine chimeric antibody, human IgG1) VH: DVQLQESGPGLAKLSQSLSLTCSVTGYSITSGYYWNWIRQFPGNKLEWMGHISYDGNNNYNPSLKNRISITRDTSKNQFFLKLNSVTTEDTATYYCARENYSNYYFDYWGQGTTLTVSS VL: DIVLTQSPASLAVSLGQRATISCRASQSVSKSSYTYIHWYQQKPGQPPKLLIKYASILQSGVPARFSGSGSGTDFTLNFHPVEEEDTATYYCQHSWEIPYTFGGGTKLEIK	2.9	29700	38	91	99	2.08	173000	1.9	48300
F6.12.12 (antibody, human IgG1, V domains shown, human-murine chimeric antibody, human IgG1) VH: DVQLQESGPGLVKPSQSLSLTCSVTGYSITSGYYWIWIRQFPGNKLEWMGYISYDASNKYKPSLKNRISITRDTSKNQFFLKLNSVTAEDTATYFCAREDLRGYFDVWGTGTSVTVSS VL: DIVLTQSPASLAVSLGRRATISCRASQSVSTSGFSYMHWYQQKPGQPPNLLIKYASILQSGVPARFSGSGSGTDFILNIHPVEDVDTATYYCQHSWGIPFTFGSGTKLEIK	5.25	43300	91	97	97	0.94	99100	0.84	63300
F2.15.26 (antibody, human IgG1, V domains shown, human-murine chimeric antibody, human IgG1) VH: QVQLKESGPGLVAPSQSLSITCTVSGFSLTDYGVSWIRQSPGKGLEWLGVIWGSGDTYYNSVLESRLSINKDNSKNQVFLKMNSLQTDDAAMYFCAKHSYYGGSFAMDYWGQGTSVTVSS VL: DIQMTQTTSSLSASLGDRVTISCRASQDISNYLNWYQQKPDGTVKLLIYYTSRLHSGVPSRFSGSGSGTDYSLTISNLEQEDIATYFCQQGKTLPWTFGGGTKLEIK	0.53	29200	2	6	22	16.7	28700	0.71	60400
F3.5.1 (antibody, human IgG1, V domains shown, human-murine chimeric antibody, human IgG1) VH: QAQLQQSGPELVKPGASVKISCKASGYAFSGSWMNWVQQRPGKGLEWIGRIYPGDGDTYYNGKFKDKAILTADKSSSTAYMQLSSLTSEDSAVYFCAQLRYRYVMDYWGQGTSVTVSS VL: DIVLTQSPASLAVSLGQRATISCRASESVSIHGSHLMHWYQQKPGQPPRLLIYAASNLESGVPARFSGSGSETDFTLNIHPVEEEDAATYFCQQGIKDPYTFGGGTKLEIK	1.47	24800	6	15	23	6.11	80000	2.49	49900
F3.40.14 (antibody, human IgG1, V domains shown, human-murine chimeric antibody, human IgG1) VH: QAQLQQSGPELVKPGASVKISCKASGYAFSGSWMNWVQQRPGKGLEWIGRIYPGDGDTYYSGKFKDKAILTADTSSSTAYMQLSSLTSEDSAVYFCAQLRSRYVMDYWGQGASVTVSS VL: DIVLTQSPASLAVSLGQRATISCRASESVSIHGTHLMHWYQQKPGQPPRLLIYAASNLESGVPARFSGSGSETDFTLNIHPVEEEDAATYFCQQGIDDPYTFGGGTKLEIK	2.59	27000	1	1	5		281	6	49100
